Data reported in the supplement of paper PMC9112550, “Optimization of the antimicrobial peptide Bac7 by deep mutational scanning” (BMC Biology, 2022).

System: Escherichia coli TOP10
Test: shrunken log2 fold change of peptide-encoding DNA abundance (4.5 h post-induction vs induction); higher = less antimicrobial activity (less host growth inhibition)
Conditions: time post-induction: 4.5 h; library: site-saturation at positions 5, 18, 19, 20
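Further: peptides expressed intracellularly from a pBAD plasmid library in pooled LB shake-flask culture, induced with 0.3% L-arabinose, DNA abundance read by NGS, three biological replicates, DESeq2 with apeglm shrinkage.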

| Sequence | shrunken log2 fold change |
| --- | --- |
| RRIRHRPPRLPRPRPRPSMYPRP | -0.0507 |
| RRIRDRPPRLPRPRPRPWTYPRP | -0.834 |
| RRIRSRPPRLPRPRPRPYLIPRP | -0.363 |
| RRIRARPPRLPRPRPRPPLAPRP | 0.861 |
| RRIRWRPPRLPRPRPRPCNEPRP | -0.409 |
| RRIRSRPPRLPRPRPRPWGTPRP | -0.222 |
| RRIRYRPPRLPRPRPRPYDLPRP | -0.0181 |
| RRIRFRPPRLPRPRPRPQNRPRP | -0.536 |
| RRIRCRPPRLPRPRPRPRGPPRP | 0.816 |
| RRIRKRPPRLPRPRPRPEINPRP | 0.0365 |
| RRIRGRPPRLPRPRPRPDWCPRP | 1.37 |
| RRIRTRPPRLPRPRPRPCRFPRP | -0.265 |
| RRIRKRPPRLPRPRPRPGEMPRP | 1.62 |
| RRIRQRPPRLPRPRPRPEHFPRP | 0.0746 |
| RRIRTRPPRLPRPRPRPIPIPRP | -0.0307 |
| RRIRIRPPRLPRPRPRPPEQPRP | 0.118 |
| RRIRLRPPRLPRPRPRPAYIPRP | -0.098 |
| RRIRMRPPRLPRPRPRPVEDPRP | 0.358 |
| RRIRWRPPRLPRPRPRPDEMPRP | -0.0412 |
| RRIRWRPPRLPRPRPRPMWYPRP | -0.0539 |
| RRIRPRPPRLPRPRPRPRYHPRP | -0.224 |
| RRIRVRPPRLPRPRPRPYKLPRP | -0.745 |
| RRIRFRPPRLPRPRPRPAMSPRP | -0.302 |
| RRIRCRPPRLPRPRPRPWYVPRP | -0.461 |
| RRIRVRPPRLPRPRPRPKNFPRP | 0.0772 |

| Sequence | shrunken log2 fold change |
| --- | --- |
| RRIRTRPPRLPRPRPRPMRLPRP | -0.0194 |
| RRIRERPPRLPRPRPRPPVNPRP | 0.148 |
| RRIRDRPPRLPRPRPRPPIRPRP | 0.173 |
| RRIRKRPPRLPRPRPRPSTWPRP | -0.18 |
| RRIRDRPPRLPRPRPRPTKWPRP | 0.0286 |
| RRIRWRPPRLPRPRPRPQDSPRP | 0.0627 |
| RRIRWRPPRLPRPRPRPSRRPRP | 0.215 |
| RRIRSRPPRLPRPRPRPHPRPRP | 0.375 |
| RRIRKRPPRLPRPRPRPECYPRP | -0.0555 |
| RRIRDRPPRLPRPRPRPHFPPRP | -0.0339 |
| RRIRCRPPRLPRPRPRPEGSPRP | -0.043 |
| RRIRQRPPRLPRPRPRPGAEPRP | 0.39 |
| RRIRGRPPRLPRPRPRPWASPRP | -0.00862 |
| RRIRARPPRLPRPRPRPSKHPRP | -0.11 |
| RRIRARPPRLPRPRPRPRQKPRP | 0.055 |
| RRIRARPPRLPRPRPRPWSKPRP | -0.27 |
| RRIRDRPPRLPRPRPRPGEDPRP | -0.000687 |
| RRIRRRPPRLPRPRPRPMHYPRP | 0.117 |
| RRIRNRPPRLPRPRPRPHGRPRP | 0.00746 |
| RRIRSRPPRLPRPRPRPVLPPRP | -0.167 |
| RRIRYRPPRLPRPRPRPQYHPRP | -0.873 |
| RRIRRRPPRLPRPRPRPHQQPRP | -0.0551 |
| RRIRMRPPRLPRPRPRPHNGPRP | -0.337 |
| RRIRFRPPRLPRPRPRPCNWPRP | 0.128 |
| RRIRKRPPRLPRPRPRPKCIPRP | 0.317 |

| Sequence | shrunken log2 fold change |
| --- | --- |
| RRIRDRPPRLPRPRPRPLMYPRP | -0.00328 |
| RRIRFRPPRLPRPRPRPKDPPRP | 0.216 |
| RRIRWRPPRLPRPRPRPWNEPRP | 0.0237 |
| RRIRDRPPRLPRPRPRPHWLPRP | 0.149 |
| RRIRARPPRLPRPRPRPATHPRP | 0.186 |
| RRIRQRPPRLPRPRPRPDATPRP | 0.495 |
| RRIRCRPPRLPRPRPRPCCYPRP | -0.696 |
| RRIRNRPPRLPRPRPRPLMRPRP | 0.627 |
| RRIRFRPPRLPRPRPRPHYRPRP | -0.206 |
| RRIRFRPPRLPRPRPRPWKWPRP | -0.0196 |
| RRIRCRPPRLPRPRPRPFFFPRP | 0.101 |
| RRIRGRPPRLPRPRPRPRASPRP | 1.05 |
| RRIRSRPPRLPRPRPRPARPPRP | 0.691 |
| RRIRARPPRLPRPRPRPTYIPRP | -0.438 |
| RRIRHRPPRLPRPRPRPSTKPRP | -0.383 |
| RRIRSRPPRLPRPRPRPYAPPRP | -0.205 |
| RRIRNRPPRLPRPRPRPMPDPRP | 0.259 |
| RRIRARPPRLPRPRPRPYACPRP | -0.217 |
| RRIRRRPPRLPRPRPRPKFIPRP | -0.207 |
| RRIRPRPPRLPRPRPRPGSLPRP | -0.0171 |
| RRIRARPPRLPRPRPRPKVCPRP | -0.132 |
| RRIRGRPPRLPRPRPRPTRFPRP | 0.19 |
| RRIRMRPPRLPRPRPRPILRPRP | 0.00958 |
| RRIRDRPPRLPRPRPRPHCVPRP | 0.017 |
| RRIRARPPRLPRPRPRPAVTPRP | 0.214 |

| Sequence | shrunken log2 fold change |
| --- | --- |
| RRIRIRPPRLPRPRPRPIEEPRP | -0.0195 |
| RRIRVRPPRLPRPRPRPAATPRP | 0.609 |
| RRIRNRPPRLPRPRPRPLIIPRP | -0.433 |
| RRIRIRPPRLPRPRPRPSENPRP | -0.356 |
| RRIRYRPPRLPRPRPRPLVCPRP | -0.325 |
| RRIRCRPPRLPRPRPRPFWTPRP | -0.317 |
| RRIRERPPRLPRPRPRPTNFPRP | -0.00437 |
| RRIRARPPRLPRPRPRPKNVPRP | 0.166 |
| RRIRKRPPRLPRPRPRPFFIPRP | -0.061 |
| RRIRYRPPRLPRPRPRPSNGPRP | 0.015 |
| RRIRTRPPRLPRPRPRPLCVPRP | -0.357 |
| RRIRQRPPRLPRPRPRPKHNPRP | -0.368 |
| RRIRQRPPRLPRPRPRPANIPRP | -0.275 |
| RRIRNRPPRLPRPRPRPFWCPRP | 0.000145 |
| RRIRFRPPRLPRPRPRPIFIPRP | -0.777 |
| RRIRWRPPRLPRPRPRPPHLPRP | 0.0195 |
| RRIRCRPPRLPRPRPRPEPEPRP | 0.706 |
| RRIRNRPPRLPRPRPRPWLIPRP | -0.0217 |
| RRIRIRPPRLPRPRPRPQPYPRP | -0.84 |
| RRIRPRPPRLPRPRPRPHGTPRP | -0.0314 |
| RRIRERPPRLPRPRPRPRPSPRP | -0.093 |
| RRIRFRPPRLPRPRPRPMSGPRP | -0.0751 |
| RRIRFRPPRLPRPRPRPHDRPRP | 0.0063 |
| RRIRRRPPRLPRPRPRPVMVPRP | -0.153 |
| RRIRIRPPRLPRPRPRPHLCPRP | 0.0475 |

| Sequence | shrunken log2 fold change |
| --- | --- |
| RRIRMRPPRLPRPRPRPYFLPRP | -0.542 |
| RRIRRRPPRLPRPRPRPHWWPRP | 0.325 |
| RRIRQRPPRLPRPRPRPVASPRP | -0.0704 |
| RRIRMRPPRLPRPRPRPVSPPRP | 0.418 |
| RRIRFRPPRLPRPRPRPHHVPRP | -0.323 |
| RRIRCRPPRLPRPRPRPNNKPRP | -0.71 |
| RRIRERPPRLPRPRPRPLYFPRP | -0.764 |
| RRIRIRPPRLPRPRPRPSDSPRP | -0.0385 |
| RRIRIRPPRLPRPRPRPKPGPRP | 0.53 |
| RRIRYRPPRLPRPRPRPPRPPRP | 0.637 |
| RRIRFRPPRLPRPRPRPHQIPRP | -0.387 |
| RRIRKRPPRLPRPRPRPHSLPRP | 0.0727 |
| RRIRRRPPRLPRPRPRPWVRPRP | -0.0986 |
| RRIRSRPPRLPRPRPRPGYCPRP | -0.119 |
| RRIRHRPPRLPRPRPRPACKPRP | -0.164 |
| RRIRERPPRLPRPRPRPVDKPRP | -0.0448 |
| RRIRTRPPRLPRPRPRPWSPPRP | -0.37 |
| RRIRQRPPRLPRPRPRPPQVPRP | 1.3 |
| RRIRHRPPRLPRPRPRPPVKPRP | 0.0106 |
| RRIRPRPPRLPRPRPRPYSEPRP | 0.0371 |
| RRIRFRPPRLPRPRPRPIVSPRP | 0.303 |
| RRIRERPPRLPRPRPRPILPPRP | -0.182 |
| RRIRYRPPRLPRPRPRPMDFPRP | -0.205 |
| RRIRQRPPRLPRPRPRPADVPRP | 0.0705 |
| RRIRWRPPRLPRPRPRPMYHPRP | -0.712 |
